Legend:
[1] = system: hiPSC-derived brain organoids; assay: MEA recording of hiPSC-derived brain organoids with neuronal blockers; format: cell-based, human; conditions: uninfected brain organoids, blocker 10 μM applied immediately before recording
Method: (§1) Microelectrode Arrays (MEA). Brain organoids at day 45 of differentiation were partially dissociated and seeded onto 12-well transparent MEA plates at three brain organoids per well. Brain organoids were cultured in BrainPhys medium, including 1×B27, 1×N2, 20 ng/ml GDNF, 20 ng/ml BDNF, 500 μg/ml Dibutyryl-cAMP, 1× Glutamax, and 1× NEAA. MEA recordings were performed at 37° C. in a Maestro MEA system with AxIS software using a bandwidth with a filter for 10 Hz to 2.5 kHz cutoff frequencies. Spike detection was performed using an adaptive threshold set to 5.5 times of the standard deviation of the estimated noise on each electrode. For recordings, following a 5-minute resting time in the Maestro instrument, each plate was recorded for 10 minutes to calculate the spike rate per well. When a recording of 5 spikes over the length of 1 minute (5 spikes per minute) was obtained, the electrode was considered active. Individual electrode bursts were identified using an adaptive Poisson surprise algorithm, while network bursts were identified for each well using a non-adaptive algorithm requiring a minimum of 10 spikes with a maximum inter-spike interval of 100 ms. Multielectrode data analysis was performed using the Axion Biosystems NeuralMetrics Tool. Synchrony index was calculated by NeuralMetric Tool with synchrony window set as 20 ms. […]

HCMV TB40/E [2] = assay: Receptor-specific siRNA treatment of brain organoids followed by TB40/E infection; format: cell-based, Human cytomegalovirus; conditions: for GFP fluorescence of siRNA-treated infected brain organoids / growth kinetics of siRNA-treated infected brain organoids: siRNA for 4 days, then GFP-labeled TB40/E, up to 20 days post infection, compared to control siRNA; for susceptibility of brain organoids to TB40/E: siRNA-mediated knockdown, summary statement
Method: (§2) HCMV infection of brain organoids. Brain organoids at day 45 of differentiation were seeded in 24-well plates and exposed to 5×10^5 pfu/ml of HCMV virus for 24 hours. Following infection, 1 ml medium was replaced, and each organoid was placed in a single well for the duration of the experiment. At different time points post infection, each organoid was evaluated for GFP fluorescence intensity and organoid size in diameter using the same microscopy setting during each experiment.
RNA interference. Oligonucleotides for siRNA-mediated RNA interference were synthesized by […]. For RNA interference in brain organoids, four brain organoids with similar size were seeded in ultralow 24-well plates (one organoid per well) and transfected with siRNA using siLentFect. After 96 hours incubation, each organoid was infected with TB40/E at 5×10^5 pfu/ml. Medium was changed the following day. Brain organoids were cultured for 20 days on shaker with continuous medium change every 3-4 days.

HCMV TB40/E [3] = assay: HCMV TB40/E infection of hiPSC-derived brain organoids in the presence of NAbs (GFP fluorescence intensity, organoid size); format: cell-based, Human cytomegalovirus; conditions: for GFP fluorescence intensity of infected brain organoids / brain organoid growth kinetics (relative organoid size): GFP-labeled TB40/E, organoids at day 45 of differentiation, NAb 3.2-2000 ng/ml, up to 30 days post infection; for GFP fluorescence intensity of infected brain organoids / brain organoid growth kinetics (relative organoid size) / brain organoid size: compared to IgG control; for brain organoid size: TB40/E, 80-2000 ng/ml antibody; for prevention of HCMV infection of human brain organoids: summary statement
Method: as §2
(§3) Brain organoid treatment with NAbs. 1B2 and 62-11 NAbs at final concentrations ranging from 3.2 ng/ml to 4000 ng/ml were incubated with 5×10^5 pfu/ml of HCMV for 1 hour at 37° C. and then transferred to brain organoid-containing wells. Normal mouse IgG was used as a control at the concentration of 2000 ng/ml. For proliferation assay, brain organoids were incubated with 10 μM BrdU for 2 hours and fixed in 4% paraformaldehyde (PFA) for 1 hour, followed by immunostaining.
(§4) Images were obtained with a Carl Zeiss LSM700 confocal microscope or Nikon Eclipse TE-2000-S microscope. Cortical layer thicknesses, brain organoid size and GFP fluorescence intensity of brain organoids were measured by Image J. For measuring the layer thickness, small rectangles were drawn to ensure two opposite sides to align with both layer marker dashed lines.

[4] = system: HCMV infection of fibroblasts; conditions: cited from earlier work
[5] = system: HCMV infection of epithelial cells; conditions: cited from earlier work
HCMV strain TR = assay: HCMV TR infection of hiPSC-derived brain organoids in the presence of NAb; format: cell-based, Human cytomegalovirus; conditions: GFP-labeled TR, IMR90 iPSC-derived organoids at day 45 of differentiation
Method: as §2, §3, §4

HCMV TB40/E [6] = assay: Cortical layer structure of TB40/E-infected brain organoids by layer marker immunostaining; format: cell-based, Human cytomegalovirus; conditions: NAb 2000 ng/ml, compared to IgG control
Method: as §3
Immunostaining. Cells on coverslip were fixed with 4% PFA in PBS for 15 minutes at room temperature. Brain organoids were fixed with 4% PFA for 1 hour and submerged in 30% sucrose overnight. The samples were embedded in OCT and sectioned at a thickness of 14 or 20 μm using Leica CM3050S. Cells or brain organoid sections were permeabilized and blocked with blocking solution (1×PBS containing 0.1% Triton X-100 and 5% normal donkey serum) for 1 hour. […]
as §4

HCMV TB40/E [7] = assay: MEA recording of neural network activity in TB40/E-infected brain organoids; format: cell-based, Human cytomegalovirus; conditions: 4000 ng/ml NAb, MEA recording 2 weeks post infection
Method: as §1

With N#Cc1cc2nc([O-])c([O-])nc2cc1[N+](=O)[O-].[Na+].[Na+] [CNQX, CNQX disodium salt] the “spontaneous, synchronized burst and spikes of the neuronal network (MEA)” value [1] was “could be quenched”.

In the case of “EGFR-specific siRNA: siRNA specific for EGFR, sense SEQ ID NO: 1, antisense SEQ ID NO: 2 (sense GACGGCGUCCGCAAGUGUA; antisense UACACUUGCGGACGCCGUCUU; listed as RNA, chemistry not given here)”, the “GFP fluorescence of siRNA-treated infected brain organoids” value (HCMV TB40/E [2]) is reported as “no or very low GFP fluorescence”, the “growth kinetics of siRNA-treated infected brain organoids” value (HCMV TB40/E [2]) is reported as “substantially higher growth kinetics” and the “susceptibility of brain organoids to TB40/E” value (HCMV TB40/E [2]) is reported as “completely abrogated”.

With “PDGFRα-specific siRNA: siRNA specific for PDGFRα, sense SEQ ID NO: 3, antisense SEQ ID NO: 4 (sense CCACCUUCAUCAAGAGAGA; antisense UCUCUCUUGAUGAAGGUGGAA; listed as RNA, chemistry not given here)” the “GFP fluorescence of siRNA-treated infected brain organoids” value (HCMV TB40/E [2]) was “no or very low GFP fluorescence”, the “growth kinetics of siRNA-treated infected brain organoids” value (HCMV TB40/E [2]) was “substantially higher growth kinetics” and the “susceptibility of brain organoids to TB40/E” value (HCMV TB40/E [2]) was “completely abrogated”.

With “ITGA5-specific siRNA: siRNA specific for integrin α5 (Dharmacon), sense SEQ ID NO: 7, antisense SEQ ID NO: 8 (sense GGGAACCUCACUUACGGCU; antisense AGCCGUAAGUGAGGUUCCCUU; listed as RNA, chemistry not given here) [reference compound]” the “GFP fluorescence of siRNA-treated infected brain organoids” value (HCMV TB40/E [2]) was “similar” and the “growth kinetics of siRNA-treated infected brain organoids” value (HCMV TB40/E [2]) was “similar”.

For “ITGA3-specific siRNA: siRNA specific for integrin α3, sense SEQ ID NO: 5, antisense SEQ ID NO: 6 (sense GCUACAUGAUUCAGCGCAA; antisense UUGCGCUGAAUCAUGUAGCUG; listed as RNA, chemistry not given here)”, the “GFP fluorescence of siRNA-treated infected brain organoids” value (HCMV TB40/E [2]) was “similar” and the “growth kinetics of siRNA-treated infected brain organoids” value (HCMV TB40/E [2]) was “similar”.

B1: 62-11: Mouse monoclonal gH-specific HCMV neutralizing antibody raised against the envelope PC by vaccination (antibody, V domains shown)
VH: QVQLQQPGAELVRPGASVKLSCKASGYTFTSYWMNWVKQRPGQGLEWIGMIDPSDSETHYNQMFKDKATLTVDKSSSTAYMQLSSLTSEDSAVYYCSNGYSSFAYWGQGTLVTVSV
VL: DVQMTQTTSSLSASLGDRVTISCSASQGISNYLNWYQQKPDGTVKLLIYDTSSLHSGVPSRFSGSGSGTDYSLTISNLEPEDIATYYCQQYSKLPYTFGGGTKLEIK
In the case of B1, the “GFP fluorescence intensity of infected brain organoids” value (HCMV TB40/E [3]) is reported as “substantially reduced GFP fluorescence intensity”, the “brain organoid growth kinetics (relative organoid size)” value (HCMV TB40/E [3]) is reported as “markedly increased growth kinetics in a dose-dependent manner” and the brain organoid size (HCMV TB40/E [3]) is reported as “substantially larger”. The “prevention of HCMV infection of human brain organoids” value (HCMV TB40/E [3]) was “can potently prevent”, the “prevention of HCMV infection of fibroblasts” value [4] was “can potently interfere” and the “inhibition of HCMV infection of epithelial cells” value [5] was “can potently interfere”.

B2: 1B2: Mouse monoclonal anti-CMV PC neutralizing antibody that targets the UL128/130/131A subunits of the PC (antibody, V domains shown)
VH: EVQLVESGGVLVKPGGSLKLSCAASGFTFSDYYMYWVRQTPEKRLEWVATISDDGNYTNYPDSVKGRFTISRDNAKNNLYLQMSSLKSEDTAMYYCARGWLLPVFAYWGQGTLVTVSA
VL: DIVLTQSPATLSVTPGDSVSLSCRASQSIGNNLHWYQQKSHESPRLLIKYTSQSISGIPSRFSGSGSGTDFTLNINSVETEDFGVYFCQQSNRWPWTFGGGTKLEIK
With B2 the “GFP fluorescence intensity of infected brain organoids” value (HCMV TB40/E [3]) was “substantially reduced GFP fluorescence intensity”, the “brain organoid growth kinetics (relative organoid size)” value (HCMV TB40/E [3]) was “markedly increased growth kinetics in a dose-dependent manner” and the brain organoid size (HCMV TB40/E [3]) was “substantially larger”. For the same molecule, the “prevention of HCMV infection of human brain organoids” value (HCMV TB40/E [3]) was “can potently prevent”, the “infection of brain organoids by TR and its effect on brain organoid growth” value (HCMV strain TR) was “could be prevented” and the “thickness of the TBR2+SVZ and the CTIP2+CP layers” value (HCMV TB40/E [6]) was “much thicker”. For the same molecule, the “neural network activity (MEA profile)” value (HCMV TB40/E [7]) was “largely prevented neural network impairment”, the “prevention of HCMV infection of fibroblasts” value [4] was “unable to prevent” and the “inhibition of HCMV infection of epithelial cells” value [5] was “exceptionally high potency”.
